Assay results from patent US10434147B2, “Treatment type 2 diabetes mellitus patients” (Sanofi-Aventis Deutschland GmbH, priority 2015, dated 2019).

System: Patients with Type 2 Diabetes Insufficiently Controlled with Insulin Glargine with or without Metformin
Experiment: Treatment-emergent adverse events, 26-week study
Type: in vivo, human
Details: in vivo
Source text: FIG. 6—Graphical study design. ^1 Insulin glargine should be injected subcutaneously once daily at dinner or breakfast time (according to patient's/investigators' preference). […] Meal used for insulin glulisine dosing should remain the same throughout the 26-week treatment period. ^4 Injection of insulin glulisine prior to breakfast, lunch and dinner.
Co-primary endpoints at 26 weeks were (1) non-inferiority (95% CI upper bound <0.4%) in HbA1c reduction with LIXI vs GLU-1 and (2) for LIXI vs GLU-3, either non-inferiority in HbA1c reduction (2a) OR superiority (one-sided α≤0.025) in body weight change (2b). FPG, PPG, IG dose, composite outcomes, AEs, and hypoglycemia were assessed.

Insulin Glulisine QD: insulin glulisine once daily, added to insulin glargine ± metformin (comparator arm)
0 n (%): Patients with treatment emergent SAE: Gastric ulcer haemorrhage | Patients with treatment emergent SAE: Gastrointestinal disorders (SOC) | Patients with treatment emergent SAE: Hepatic mass | Patients with treatment emergent SAE: Hepatobiliary disorders (SOC) | Patients with treatment emergent SAE: Hypertension | Patients with treatment emergent SAE: Invasive ductal breast carcinoma | Patients with treatment emergent SAE: Myocardial ischaemia | Patients with treatment emergent SAE: Neoplasm malignant | Patients with treatment emergent SAE: Neoplasms benign, malignant and unspecified (incl cysts and polyps) (SOC) | Patients with treatment emergent SAE: Pancreatic carcinoma metastatic | Patients with treatment emergent SAE: Penile infection | Patients with treatment emergent SAE: Renal and urinary disorders (SOC) | Patients with treatment emergent SAE: Renal failure | Patients with treatment emergent SAE: Renal failure acute | Patients with treatment emergent SAE: Septic arthritis staphylococcal | Patients with treatment emergent SAE: Skin and subcutaneous tissue disorders (SOC) | Patients with treatment emergent SAE: Skin ulcer haemorrhage | Patients with treatment emergent SAE: Uterine cancer | Patients with treatment emergent SAE: Vascular disorders (SOC) | TEAE leading to permanent treatment discontinuation: Abdominal pain | TEAE leading to permanent treatment discontinuation: Ascites | TEAE leading to permanent treatment discontinuation: Blood and lymphatic system disorders (SOC) | TEAE leading to permanent treatment discontinuation: Cardiac disorders (SOC) | TEAE leading to permanent treatment discontinuation: Cardiac failure chronic | TEAE leading to permanent treatment discontinuation: Cough | TEAE leading to permanent treatment discontinuation: Decreased appetite | TEAE leading to permanent treatment discontinuation: Dehydration | TEAE leading to permanent treatment discontinuation: Diabetic bullosis | TEAE leading to permanent treatment discontinuation: Diarrhoea | TEAE leading to permanent treatment discontinuation: Dyspepsia | TEAE leading to permanent treatment discontinuation: Epigastric discomfort | TEAE leading to permanent treatment discontinuation: Gastric ulcer haemorrhage | TEAE leading to permanent treatment discontinuation: Gastrointestinal disorders (SOC) | TEAE leading to permanent treatment discontinuation: Headache | TEAE leading to permanent treatment discontinuation: Hepatic mass | TEAE leading to permanent treatment discontinuation: Hepatobiliary disorders (SOC) | TEAE leading to permanent treatment discontinuation: Hot flush | TEAE leading to permanent treatment discontinuation: Hypoglycaemia | TEAE leading to permanent treatment discontinuation: Immune system disorders (SOC) | TEAE leading to permanent treatment discontinuation: Invasive ductal breast carcinoma | TEAE leading to permanent treatment discontinuation: Lymphadenopathy | TEAE leading to permanent treatment discontinuation: Metabolism and nutrition disorders (SOC) | TEAE leading to permanent treatment discontinuation: Metastases to liver | TEAE leading to permanent treatment discontinuation: Metastases to peritoneum | TEAE leading to permanent treatment discontinuation: Nasal congestion | TEAE leading to permanent treatment discontinuation: Nausea | TEAE leading to permanent treatment discontinuation: Neoplasms benign, malignant and unspecified (incl cysts and polyps) (SOC) | TEAE leading to permanent treatment discontinuation: Pancreatic carcinoma metastatic | TEAE leading to permanent treatment discontinuation: Renal and urinary disorders (SOC) | TEAE leading to permanent treatment discontinuation: Renal failure | TEAE leading to permanent treatment discontinuation: Respiratory, thoracic and mediastinal disorders (SOC) | TEAE leading to permanent treatment discontinuation: Seasonal allergy | TEAE leading to permanent treatment discontinuation: Skin and subcutaneous tissue disorders (SOC) | TEAE leading to permanent treatment discontinuation: Skin ulcer haemorrhage | TEAE leading to permanent treatment discontinuation: Thrombosis | TEAE leading to permanent treatment discontinuation: Vascular disorders (SOC) | TEAE leading to permanent treatment discontinuation: Vomiting | Total number of patients with any event adjudicated as pancreatitis by PSAC
3 (1.0%) n (%): Patients with treatment emergent SAE: Nervous system disorders (SOC)
2 (0.7%) n (%): Patients with treatment emergent SAE: Hypoglycaemic unconsciousness | Patients with treatment emergent SAE: Metabolism and nutrition disorders (SOC) | TEAE leading to permanent treatment discontinuation: Any class
4 (1.3%) n (%): Patients with treatment emergent SAE: Injury, poisoning and procedural complications (SOC)
1 (0.3%) n (%): Patients with treatment emergent SAE: Hypoglycaemia | Patients with treatment emergent SAE: Incisional hernia | Patients with treatment emergent SAE: Infections and infestations (SOC) | Patients with treatment emergent SAE: Myocardial infarction | Patients with treatment emergent SAE: Neuritis cranial | TEAE leading to permanent treatment discontinuation: Blood glucose decreased | TEAE leading to permanent treatment discontinuation: Investigations (SOC) | TEAE leading to permanent treatment discontinuation: Nervous system disorders (SOC) | TEAE leading to permanent treatment discontinuation: Tremor
